From patent US20140030725

Tests used:
[1] = system: HQ:CBS:HT (5xHQ tag:CBS variant 1A5:HaloTag), from pFNA:HQ(5x):CBS:HT(7)
[2] = system: CBS-HaloTag (CBS-HT) fusion protein (CBS variant 1A5 cloned into pFN19K HaloTag)
Sequence of CBS-HaloTag (CBS-HT) fusion protein (CBS variant 1A5 cloned into pFN19K HaloTag) (chain, as listed by the source mutant): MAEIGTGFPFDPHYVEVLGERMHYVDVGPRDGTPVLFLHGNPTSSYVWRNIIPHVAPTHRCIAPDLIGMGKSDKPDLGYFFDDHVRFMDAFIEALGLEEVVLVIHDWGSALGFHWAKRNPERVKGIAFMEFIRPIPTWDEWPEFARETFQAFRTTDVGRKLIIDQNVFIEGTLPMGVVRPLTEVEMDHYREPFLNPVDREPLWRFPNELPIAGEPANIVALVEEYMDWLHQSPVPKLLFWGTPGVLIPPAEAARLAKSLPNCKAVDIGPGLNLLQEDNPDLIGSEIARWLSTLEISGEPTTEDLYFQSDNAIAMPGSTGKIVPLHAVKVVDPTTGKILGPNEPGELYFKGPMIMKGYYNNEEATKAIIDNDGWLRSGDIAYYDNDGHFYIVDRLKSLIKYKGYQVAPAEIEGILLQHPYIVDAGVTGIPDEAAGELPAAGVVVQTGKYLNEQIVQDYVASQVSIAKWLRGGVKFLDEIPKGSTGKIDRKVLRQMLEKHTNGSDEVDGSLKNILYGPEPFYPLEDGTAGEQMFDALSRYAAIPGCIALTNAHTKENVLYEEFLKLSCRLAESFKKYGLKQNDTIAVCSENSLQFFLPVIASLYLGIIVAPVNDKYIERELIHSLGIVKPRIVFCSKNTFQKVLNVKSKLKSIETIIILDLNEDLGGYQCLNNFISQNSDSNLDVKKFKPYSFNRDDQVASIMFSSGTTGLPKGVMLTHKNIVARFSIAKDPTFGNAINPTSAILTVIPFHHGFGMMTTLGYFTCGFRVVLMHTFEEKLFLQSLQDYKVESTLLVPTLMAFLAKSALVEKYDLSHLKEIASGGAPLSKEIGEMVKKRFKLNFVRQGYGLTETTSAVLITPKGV

Substance: recombinant caspase-3 (E. coli KRX lysate, pTS1k:caspase-3(T/S))
- INDUCED luminescence, HisLink elution fraction E1 [1]: 2,951,899
- INDUCED luminescence, HisLink elution fraction E2 [1]: 40,913,496
- INDUCED luminescence, HisLink elution fraction E3 [1]: 3,287,059
- INDUCED luminescence, HisLink elution fraction E4 [1]: 215,580
- INDUCED luminescence, HisLink elution fraction E5 [1]: 48,068
- INDUCED luminescence, HisLink purification sample HSS [1]: 12,875,742
- INDUCED luminescence, HisLink purification sample NSM [1]: 5,822,003
- INDUCED luminescence, HisLink purification sample WASH [1]: 3,706,541
- INDUCED luminescence, purified HQ:CBS:HT immobilised on HaloLink plate [1]: 661,597
- RESPONSE, HisLink elution fraction E1 [1]: 699 fold
- RESPONSE, HisLink elution fraction E2 [1]: 212 fold
- RESPONSE, HisLink elution fraction E3 [1]: 178 fold
- RESPONSE, HisLink elution fraction E4 [1]: 191 fold
- RESPONSE, HisLink elution fraction E5 [1]: 178 fold
- RESPONSE, HisLink purification sample HSS [1]: 43 fold
- RESPONSE, HisLink purification sample NSM [1]: 33 fold
- RESPONSE, HisLink purification sample WASH [1]: 479 fold
- RESPONSE, purified HQ:CBS:HT immobilised on HaloLink plate [1]: 96 fold
- INDUCED luminescence (5 min; CBS-HT from wheat germ extract + E. coli lysate containing caspase-3) [2]: 4,626,173
- INDUCED luminescence, CBS-HT immobilised on HaloLink RESIN [2]: 1,635,259
- INDUCED luminescence, CBS-HT immobilised on HaloTag-ligand plate, 0 min [2]: 1,226
- INDUCED luminescence, CBS-HT immobilised on HaloTag-ligand plate, 1 min [2]: 1,636
- INDUCED luminescence, CBS-HT immobilised on HaloTag-ligand plate, 2 min [2]: 2,267
- INDUCED luminescence, CBS-HT immobilised on HaloTag-ligand plate, 3 min [2]: 2,147
- INDUCED luminescence, CBS-HT immobilised on HaloTag-ligand plate, 4 min [2]: 2,297
- INDUCED luminescence, CBS-HT immobilised on HaloTag-ligand plate, 5 min [2]: 2,857
- INDUCED luminescence, CBS-HT immobilised on HaloTag-ligand plate, 6 min [2]: 3,107
- INDUCED luminescence, CBS-HT immobilised on HaloTag-ligand plate, 7 min [2]: 3,377
- INDUCED luminescence, CBS-HT immobilised on HaloTag-ligand plate, 8 min [2]: 3,037
- INDUCED luminescence, CBS-HT immobilised on HaloTag-ligand plate, 9 min [2]: 3,667
- INDUCED luminescence, sample AS (HaloLink resin immobilisation experiment) [2]: 5,162,108
- INDUCED luminescence, sample FT (HaloLink resin immobilisation experiment) [2]: 232,117
- RESPONSE (induced/basal luminescence; 5 min; CBS-HT from wheat germ extract) [2]: 441 fold
- RESPONSE, CBS-HT immobilised on HaloLink RESIN [2]: 146 fold
- RESPONSE, CBS-HT immobilised on HaloTag-ligand plate, 0 min [2]: 19 fold
- RESPONSE, CBS-HT immobilised on HaloTag-ligand plate, 1 min [2]: 102 fold
- RESPONSE, CBS-HT immobilised on HaloTag-ligand plate, 2 min [2]: 21 fold
- RESPONSE, CBS-HT immobilised on HaloTag-ligand plate, 3 min [2]: 33 fold
- RESPONSE, CBS-HT immobilised on HaloTag-ligand plate, 4 min [2]: 18 fold
- RESPONSE, CBS-HT immobilised on HaloTag-ligand plate, 5 min [2]: 23 fold
- RESPONSE, CBS-HT immobilised on HaloTag-ligand plate, 6 min [2]: 41 fold
- RESPONSE, CBS-HT immobilised on HaloTag-ligand plate, 7 min [2]: 60 fold
- RESPONSE, CBS-HT immobilised on HaloTag-ligand plate, 8 min [2]: 22 fold
- RESPONSE, CBS-HT immobilised on HaloTag-ligand plate, 9 min [2]: 32 fold
- RESPONSE, sample AS (HaloLink resin immobilisation experiment) [2]: 175 fold
- RESPONSE, sample FT (HaloLink resin immobilisation experiment) [2]: 73 fold
